We go through 69 sequences from the domain aggregation screens of Martell et al. (2025).

Some results are limits rather than exact numbers.

The nature of the series: soluble fraction after stress (log2 fold change); higher = more stays soluble; pooled small domains, quantitative proteomics. The conditions noted are these: stress: 50 degC. The method, boiled down: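 Pooled custom libraries of small protein domains were measured in a high-throughput format, with quantitative proteomics as the read-out. Each library was stressed at 50°C. Aggregation propensity is given as the base-two logarithm of the fold change in how much of each protein stays soluble after the stress. Higher values mean a larger share of the protein remains in solution.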
As to “HMETGEDSLRRYFNSLPGSASKREILEDNPTVSQRTTERILQKLQAEGFIEKVGAARATRYRKVKQ”, the “soluble fraction (log2)” value turned out to be 0.209.
Turning to “HMQGVTVPDLTRVSLEEAVATISSLGLRYEISDRRSNAAFPANYVLDQAPGANTIVKPNRKVYLTVNAA”, the “soluble fraction (log2)” value amounted to 0.35.
On to “HMTLTIEDGYVNAKLKTTVEGLAEDSTIKVDSIEYTNAGKNDILTVFVEDKPYRVEKYKINIAPEDS”, for which the “soluble fraction (log2)” value amounted to 0.0185.
The value for “HMTTIKLTQEDVEKIKSLPKRTFLIGNLQQTGLYDEKTRRFYYLDANGEWNGRLAIINTPPPPPPPP” was 0.199; that for “HMAEQLGNSRTANMVMLGAMIERTGVISIDSAMEALKATFGPKKEHLLPINRQAMEAGAAAARAV” was 0.303.
For the sequence “HMDAVKKKVQSTNTLLDVLKQMLPQTSSNTLRKMLTNQRITVDGETIHRAKHTVEKDQTVEIHPKP”, the “soluble fraction (log2)” value was found to be 0.256.
Regarding “HMSINQTIEGKKQGYWIIYGNMRNLQEYLSNEVIEEGQFKNSRKEGVWRKYFPGGQMKSEITYINGRP”, the “soluble fraction (log2)” value is -0.309.
Take “HMITASNYFIEVERIGIETLPETLKKGHDLVVKSTSNGTNWANYQTSEGIKKVIDLYFQKLNEYANTV”: the “soluble fraction (log2)” value is -0.749.
Turning to “HMDLIEVLAQDTIKKIYNTYVAYKNKVDVFYVAFSGGKDSIVTLDLVQRTLPHNEFKVLFGDTGM”, the “soluble fraction (log2)” value came out at 0.133.
As for “HMPSEAVQNIIGNVKSKRRVATIGQARGLASNVIKEGKFDNVSNTAMVNRLIDLGIISNSIGYQ”, the “soluble fraction (log2)” value was 0.115.
Consider “HMEIIFVEHKVRPGESVWLIARKYKVKKNHILAVNNLSEKSIIRPKQILKIPTSGYDQYKKSVE”, for which the “soluble fraction (log2)” value is -3.22.
For “HMNHSITLTERKNLLITGVKKIENFDKEEFLIETTMGFLVVKGDGLELIKLDTISGNVSIKGIVNGFTYID”, the “soluble fraction (log2)” value turned out to be 0.223.
The value for “HMTQSGLTQWEFNMLRQALIEMLGEKPGSVFELARLLPLEQEKNVQALRFLLDHDDQFHLKDEYISFVKRT” was -1.92; that for “HMTNEQLSKAKSWVQIAVYAAEKLYGAGNGDQKLVYAEEILRKHGIRLDTATLKAMIDAQIKEMEN” was -0.149.
“HMSVPSLVGKTDSEAQSAIKSAGLKVGTVTYQYSDETEKGYVVSQSPYSGNKVNAGSTVNIVVSKGK”: the “soluble fraction (log2)” value was -0.0367.
Consider “HMPAVVEFDVKPRGEVLVDGIWYGRIPELREVELRPGRHHLRVQNAGHPSLDLVVTLEPGERMTVTHTFA”, for which the “soluble fraction (log2)” value is -0.102.
For “HMLKLTDRQKVILSILMSDGEKTASWIASQLGVGLRSVQLDLSYLRNNGFIKKASKSTHSAWIVLKK”, the “soluble fraction (log2)” value was -2.5.
Consider “HMKYLREEDYLPIGSIIRLDDRNFRVDHVNFMFKSVSLQDMDLTNSGQPIFRSESLPHIRELYEQQQNELV”, for which the “soluble fraction (log2)” value is -1.19.
Turning to “HMLTKSVLGNQIKVLRLEKGLSQEEFGAPVDLSRSAVSQIESGQMYPSLESIGKIVKYYSTSWDNLVG”, the “soluble fraction (log2)” value is -0.821.
For “HMDDPWHNLANAIVAVAADDYRSALRNEDEGLLKSLELFFHSEWYRILTDVDADRLLGMLRRERS”, the “soluble fraction (log2)” value is -1.62.
On to “HMTRNEFMTALRKRLSHLPAEEQDAALKYYEEYFDEAESEEEAARQLGSPDAIADRILADYGAG”, for which the “soluble fraction (log2)” value came to 0.0132.
The value for “HMQISDSASVKTVVAEAIAANPKAVADFMNGKDTATRYLVGQVMKITKGQAKPELVNQLVLESLAELKEK” was 0.335; that for “HMSYGKVQFVIDAKDAVLSIDGKETDYEKPVKLTYGSHTITVYSSDYDTWKRNLYVNSEKSTVVINLA” was -2.72.
Take “HMKTSVGSKMMVMANNLSIRKSANLLSEKLADLSKGDMVEYISSTNGWNKVRYNGYVGYVSSYYLKDTGEV”: the “soluble fraction (log2)” value was -0.738.
“HMLPLHFIEIVSLKKIDTLTKRKELINYAFSKNEKTYIYKLAFKKKSELDNLYKEINLFNEIINIDIRHS”: the “soluble fraction (log2)” value was -0.615.
Next, “HMQNFLSITSKEKIDIGNFQLISFKFENNLYDYVISGNKSELLIFQEKTIENNNENIEKITSNF”: -2.06; “HMDNTFEEVKEKLLDLLKERPLTPAEVSKRMEEDKNILAQVIQYLLEEEIIKTEDGMLSKVIG”: -0.0569; “HMDGSEYAGTVRLGDGTLQPVPRFETSNSETPKYLYLVMDVTHDPPVYILEHESAELKSVLGGLVLIGSYS”: 0.0759.
Turning to “HMTPIELIEKTIELIENERKVQKLQQKELALKADIPFPTYKDFIYKKRASLENILKLFIALRLF”, the “soluble fraction (log2)” value is -0.342.
Turning to “HMITAEQENILFEKASDDISNNIINKGIWTKAYSQAGGDESKQKAIYIDLLVNYYKMLIKAGEEFEDI”, the “soluble fraction (log2)” value is -1.39.
“HMSSSKVAISQFEELVDQGQVREVVIEGSTATGTTAAGRRFAAEIPPGGMELFLSKLDDAGTTYEYSPP”: the “soluble fraction (log2)” value was ≥ 0.62.
Next, “HMTKAILTANDVRNGDIVFWTADQRWSTSIDDAAIGYGKDDTDQLADAGKQAEAANTVVGAYLIALR”: -0.276; “HMNVAVGNSKLVGVAGERAYFVNGVGAAARTLSLQVGDALPTGEKVRRIERDGVTMTGASGDVRLSVLP”: 0.0813; “HMIYQNVINLLKNRLNSSIYNIGDLLPSEKELAEHYDVSRNTLRKALKTLEEEGMIERRHGSGTYLRNK”: -0.969.
Consider “HMWNLPDPVVRPEGNVTVYENFKNTVEVLNREADLVLKFLQNEFGTSANIDDTGRARLTGSFSTDRVSSVI”, for which the “soluble fraction (log2)” value is -0.214.
Consider “HMVSAMLLHKKEILNLLAEEPEALHFASLLRAFGGRHIKNELKQIVDDLVRSGEILRLRGNRYTLPGADN”, for which the “soluble fraction (log2)” value was -1.21.
For the sequence “HMGKHYLLKDDNGTITIYKILEDGTQEVYEKTEISTTYLPQTDNIGIKQGIRVNGDEALNELIENF”, the “soluble fraction (log2)” value was -0.0212.
In the case of “HMKELLQEMIMDILRAIASPNIDIKRKTLDLVLDLITPRNIDNVTGMLKTEVVKSQSENTSDVG”, the “soluble fraction (log2)” value is -0.623.
On to “HMDRNIVYSDFIRSVNQGQVSEVLVQGDNIRGRYLNGKVFQTFAPKDPSLISTLRNKGVRISAEPA”, for which the “soluble fraction (log2)” value amounted to 0.113.
Next, “HMEPGEVQVDGLRFIAQPQERNDFEVALEQFRAGNFAAARKSFAAFINTYKQSGYLPSARFW”: -0.0516; “HMGQVGIPFSDFLAEVENGQVREVVIKGNDISGTFNDNRGFSTYAPNDPNLVEKLTKRGVVINAQPTE”: 0.0645; “HMYVKKSSFVKKSLNNYEFKITDNTNDLLIFYKGMLPDLFREEQGIVVEGLIDKNNNIVASKV”: -0.0872.
For the sequence “HMDSESGAIIRRAVAQLAPKFRSTIVLRLIEGYSTEETAQILQLPVGTVLSRLARAKVQLMNLLTPYKEL”, the “soluble fraction (log2)” value was -0.126.
On to “HMINVVDEVIKHLETNIISGFWAPGQKIDSEATLSKQLNVSRASIHTAIQQLIATGVLESFQGKGTFVRS”, for which the “soluble fraction (log2)” value was -0.624.
Turning to “HMSWNIHEAVEYYKGQDAPQNQFALVELLKEVQEHNGGVLTDIAVEEIAALLNTKVTFLNAVIKRYPSLK”, the “soluble fraction (log2)” value was -0.287.
Take “HMLNPMILLTKGGENIRLDKFLSSHLSDLSRTQIQKMVKEGLVLVNGEPSKVGLKLDGSETIQYTLPK”: the “soluble fraction (log2)” value is -0.00634.
“HMDDTPLNNVIKKIAALPENITLADKSAVLSAWEAYQALSVNLKAQVSNSELLIKAYETILQLEGEDQIK”: the “soluble fraction (log2)” value was determined as 0.235.
Next, “HMVAVSQEEATKMALERVSGASAQDIRIQLEFDDGIQKYEGDIIYNGREYEFEIDANTGTFLEWSEERA”: -0.489; “HMAREQISVSQMVRDVRDGQVKNIEVLGQELRLSYADGSQKVTRKEEGQQALEILFASDIDLAALDLEVQ”: 0.0848; “HMLSPAQSLLLRTAARRPDGRVIPPDTLRGGARVKVLTSLLQRGWIEPVDGGHVLTDAGYAAIG”: -0.353.
The value for “HMNRIEMTEPIIIKDLSRETGIPWVAIQKRLAQDGIMANINTTIEAEKAQLIAVDYGIELAVV” was 0.0679; that for “HMLPGERFKVKIAQAGKEKKQGIGYLNDGTMVVIENGIEKVGEEVEAVVIKVIQSSAGKIIFSEVAK” was 0.195.
Next, “HMSIPVLKDGTYESWGNEKVYKVGDRVMVGSNGYVAKWWNQDETPEKAIINPNDSPWRPMTESEIMEVLK”: -0.0154; “HMEDGEALARAVASLPGKYREVLFLKYSHGYSVDEIALILSMSKENVKKTIQRARKKLEQLLESE”: -0.898; “HMQDREIHIHAGREVLEKELSRLSLHLKNTNLQEYAARFNVKTAEDILAGIGAGDIRPAHVVNLIADKL”: 0.0629.
Regarding “HMRTYYEILGVSKNASLHEIQKAYRELALKYHPKNNSDPTAEEKFTQINEAYTHLSDAARRRSYDDL”, the “soluble fraction (log2)” value stood at 0.222.
Next, “HMIRILIVDDSAFMRKLLSDVFEEDKNFVVVDTARNGQDAVEKVKRLKPDLVTMDVEMPVMDGLTAVEIIM”: -0.36.
The value for “HMTNTYEVIKNDIIFGVLPPLKKLKLLELKKKYITSVSTLREILSRLSGDGFVVSKEQKGFYVSAV” was -0.00437; that for “HMYSIKEFSFEVTTPGQRLDLFLSEELIGQTRSSIQNLILKKYVTVNGQVSKASYKVKTGEFISVKIPV” was -3.16.
Take “HMRKKDGEAYVLPRPLKKGDSVLIYDIDKKGTVLQPPEKGGKTALIQAGIIQTRVPVSNLRLLE”: the “soluble fraction (log2)” value was determined as 0.383.
Next, “HMAEVDREEALRIALAHAAVARRDVRNLKIERGEENGVPVYKVEFETAFGDFDVAVSRRSGDVVDAD”: 0.0689; “HMESWEDSNIANEFKSTIKIAEKRLAEGGDHPELLEKLEALKQAIINENQTEASKLDDQVNDILFDMDD”: -0.0057; “HMIGRIKGQLIEKKSDSVVIDVHGIGYVVYVTEKTARSLTLGDQSRDISLYSELLVKEDLLQLVGFI”: 0.0137.
In the case of “HMDAMGAVGIARAFISAGERGGDISDGLEHMHGKLLRLSSLMYTRSGKKMAARRHELLSSFVQALEEEIK”, the “soluble fraction (log2)” value is -0.174.
As to “HMENTSPMTPEQSKALMAYLTKRHGDSREAYLSELSQFFGRPLSSSRELTKADVSEFLNAIN”, the “soluble fraction (log2)” value amounted to 0.161.
In the case of “HMAPVTPEERAQAMEEYKAMVTIEGYTPPKNIIEQNYKRGLWSETMLNMAVTKGAITEAEKLEIMN”, the “soluble fraction (log2)” value came out at 0.124.
In the case of “HMDRSKREKEQQELMLKVQQIFDDNQQRFGAEKIRTVLAQNGVRVSVKRVSAIMQELNLRSIR”, the “soluble fraction (log2)” value is -0.871.
Regarding “HMSDHKNANFTKVVKVAQELLQDEDDKAGITPTLIEEKISAVLAMNRRWAEGLDRAAVADELIRRFSIW”, the “soluble fraction (log2)” value was -0.42.
Take “HMQASTGNVNTETLNLRKEASTSADILKLLSQGDEVEIVSESNGWYKVKYKDTEGFVSKEYITVN”: the “soluble fraction (log2)” value stood at 0.245.
